{"source": "paper PMC3491808", "about": "(Journal of biomolecular NMR, 2011)", "biological_target": "Pin1-PPIase (isolated catalytic PPIase domain of Pin1, residues 46-163) (human, UniProt Q13526 46-163)", "sequence (Q13526 46-163)": "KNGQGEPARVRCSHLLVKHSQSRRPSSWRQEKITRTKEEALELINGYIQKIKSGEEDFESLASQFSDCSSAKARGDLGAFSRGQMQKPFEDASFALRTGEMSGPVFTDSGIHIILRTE", "experiment": "NMR titration", "note": "Non-standard residues stand in square brackets, D forms with d. No end group written: not given here. pT = C[C@@H](OP(=O)(O)O)[C@H](N)C(=O)O", "data": [{"binder": "GVVEVDAAV[pT]PEERHLSKMQQNGY (peptide, UniProt P05067-4 659-682, looked up)", "note": "[pAPP659-682 (24-residue phosphopeptide, residues 659-682 of APP phosphorylated at T668)]", "values": [{"measurement": "Kd", "value": 1.3, "unit": "mM"}]}]}
